Results taken from the supplement of paper PMC7125110.
± gives the standard error. Variants at the floor of the assay were thinned out.

B1: glmS ribozyme (parent)
chain: AUAAAAGCGCCAGAACUACAGAAAUGUAGUUGACGAGGAGGAGGUUUAUCGAAUUUUCGGCGGAUGCCUCCAAA

Variants of: B1
Assay: self-cleavage kobs at 2500 uM GlcN6P; higher = faster cleavage; RNA array
Conditions: with glucosamine-6-phosphate
Procedure, shortened: (§1)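 Tracking of barcoded ribozyme variants used a hybridised Cy3 probe at 37 °C, after in situ transcription by E. coli RNA polymerase on sequenced MiSeq chips. The flowed solution held 40 μM to 10 mM glucosamine-6-phosphate in HEPES/KCl/Mg(OAc)2 buffer, and imaging ran over ~14 h. kobs was taken from exponential decay fits of normalised per-tile medians, and kcat and KM from weighted Michaelis–Menten fits.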

Row | Variant | self-cleavage kobs at 2500 uM GlcN6P
1 | A12U G32A G35U U49A C61G U65C G66A | < 1e-05 s⁻¹
2 | G7U U54C C61A | < 1e-05 s⁻¹
3 | C16U U31C U46C C70U | 0.000342 ± 0.00015 s⁻¹
4 | C11U U31C C50U | < 1e-05 s⁻¹
5 | G29A G41A | 6.8e-05 ± 2e-05 s⁻¹
6 | C16A A36C U49A U65G | < 1e-05 s⁻¹
7 | G13A G29U G60U G66A | < 1e-05 s⁻¹
8 | U31G G32U C58U | 8.74e-05 ± 2.9e-05 s⁻¹
9 | G41U A53U U56G | 0.00031 ± 9.3e-05 s⁻¹
10 | A14U A36U G41A A48G C68U | < 1e-05 s⁻¹
11 | C10U A12G G32A A42U | < 1e-05 s⁻¹
12 | U57A G59U G66U | < 1e-05 s⁻¹
13 | C11U A14C C16A G38U G40A C50G | 6.83e-05 ± 2.4e-05 s⁻¹
14 | G32C G66U C70A | < 1e-05 s⁻¹
15 | U30A G37A G59C | < 1e-05 s⁻¹
16 | G32C A39G A53G G62A | < 1e-05 s⁻¹
17 | C8A C61G A64G | < 1e-05 s⁻¹
18 | A6U A52G C67G | 0.000425 ± 0.00018 s⁻¹
19 | G37C G62U C68U | < 1e-05 s⁻¹
20 | A6U A12U U55A | 0.000377 ± 9.2e-05 s⁻¹
21 | C8G C16G G40C | < 1e-05 s⁻¹
22 | C34A A36U A52G | < 1e-05 s⁻¹
23 | C16G G32U G44A G60A | < 1e-05 s⁻¹
24 | C10U G13U A64C | < 1e-05 s⁻¹
25 | A15G G32A C68U | 0.000247 ± 8.7e-05 s⁻¹
26 | C8A C50G U69G | 0.000345 ± 7.5e-05 s⁻¹

Row | Variant | self-cleavage kobs at 2500 uM GlcN6P
27 | G32C A39U C50G A52C U57A A64U | < 1e-05 s⁻¹
28 | A14G A15C C71A | 0.00262 ± 0.00058 s⁻¹
29 | U47C C67G C70U | 0.000129 ± 4.1e-05 s⁻¹
30 | A14G A36G C58G | < 1e-05 s⁻¹
31 | U31G A33C C50U U56C A64G | < 1e-05 s⁻¹
32 | A6C G13U A33U A52C G63C | < 1e-05 s⁻¹
33 | G7A G32U C58U C67U | < 1e-05 s⁻¹
34 | C8G A15U U47G | < 1e-05 s⁻¹
35 | A48G C50G A52U | < 1e-05 s⁻¹
36 | G13A U65G | 8.18e-05 ± 2e-05 s⁻¹
37 | G38U U49G U57A C70G | 6.84e-05 ± 3.3e-05 s⁻¹
38 | G38C U56A C67G C68G | 0.000115 ± 4.5e-05 s⁻¹
39 | C34A G40C U46C U47A G59C | < 1e-05 s⁻¹
40 | G7U C11A A14C A15C A33C U46G A48G C61U C67A | < 1e-05 s⁻¹
41 | A12U G51A G60U | < 1e-05 s⁻¹
42 | G29C G40A U56G | 4.42e-05 ± 1.1e-05 s⁻¹
43 | C10G A14C U30G G43A | < 1e-05 s⁻¹
44 | C8A A36G A42U A53G | < 1e-05 s⁻¹
45 | G9A G44U G60A | < 1e-05 s⁻¹
46 | G29U U45G C71U | 0.000117 ± 5e-05 s⁻¹
47 | A12U A33U A42G G51C U55A C71G | < 1e-05 s⁻¹
48 | G7A U31C G35C A42C U46G U54G | < 1e-05 s⁻¹
49 | U45A U55C U57C | 8.32e-05 ± 1.8e-05 s⁻¹
50 | G9U G38C G40U G43C | < 1e-05 s⁻¹
51 | A14C U45A U57A | 3.29e-05 ± 1.2e-05 s⁻¹
52 | A14C C34G A39C | < 1e-05 s⁻¹

Row | Variant | self-cleavage kobs at 2500 uM GlcN6P
53 | G51C C67G C71U | < 1e-05 s⁻¹
54 | C34U G40C G43A | < 1e-05 s⁻¹
55 | C11A G51U U55A G62A | < 1e-05 s⁻¹
56 | A6G C10U U31A G60U C67U | < 1e-05 s⁻¹
57 | C8G G35U A39C | < 1e-05 s⁻¹
58 | G29C C50U A53G C71U | < 1e-05 s⁻¹
59 | G7C C16A G43C U45G C71U | < 1e-05 s⁻¹
60 | G9C A15C A33C U46A U65G | < 1e-05 s⁻¹
61 | G43A U55C G59U C67G | < 1e-05 s⁻¹
62 | G37U A39U G44C C50G C70U | < 1e-05 s⁻¹
63 | A15G C34A G37C | < 1e-05 s⁻¹
64 | A12G U45G C50A U57G | < 1e-05 s⁻¹
65 | G13U U31G G41U G43U | < 1e-05 s⁻¹
66 | A14C A36U G59U | < 1e-05 s⁻¹
67 | C19U G41C U55C C70A | 0.000203 ± 9.2e-05 s⁻¹
68 | A53U U56A C68U | 0.000647 ± 0.00019 s⁻¹
69 | A36C C61G G63U C68A | 0.000112 ± 3.9e-05 s⁻¹
70 | C16U G43U U45G | 0.00141 ± 0.00031 s⁻¹
71 | A6U A36U G37C A48U | < 1e-05 s⁻¹
72 | G13U A15C C58G | 7.7e-05 ± 2.3e-05 s⁻¹
73 | G7U G38U G66U | < 1e-05 s⁻¹
74 | C16A A53U U55A | 0.000149 ± 3.9e-05 s⁻¹
75 | G35A G40U G51A U69G | < 1e-05 s⁻¹
76 | C8U G32U U45C | < 1e-05 s⁻¹

Variants of: B1
Assay: self-cleavage kobs at 10000 uM GlcN6P; higher = faster cleavage; RNA array
Conditions: with glucosamine-6-phosphate
Procedure, shortened: as §1

Row | Variant | self-cleavage kobs at 10000 uM GlcN6P
77 | G29A G41A | 5.78e-05 ± 1.5e-05 s⁻¹
78 | U47C C67G C70U | 8.24e-05 ± 1.8e-05 s⁻¹
79 | U45A U55C U57C | 0.00033 ± 7.3e-05 s⁻¹
80 | A12G U45G C50A U57G | < 1e-05 s⁻¹
81 | G13U A15C C58G | 8.16e-05 ± 1.4e-05 s⁻¹

Variants of: B1
Assay: self-cleavage kobs at 640 uM GlcN6P; higher = faster cleavage; RNA array
Conditions: with glucosamine-6-phosphate
Procedure, shortened: as §1

Row | Variant | self-cleavage kobs at 640 uM GlcN6P
82 | C10U A12G G32A A42U | < 1e-05 s⁻¹
83 | G37C G62U C68U | < 1e-05 s⁻¹
84 | U31G A33C C50U U56C A64G | < 1e-05 s⁻¹
85 | C11A G59A C61G C70A | 0.000163 ± 7.6e-05 s⁻¹
86 | C8A A36G A42U A53G | < 1e-05 s⁻¹
87 | U46A C50U U55C | < 1e-05 s⁻¹
88 | C8A G32U U45G A48G C71A | < 1e-05 s⁻¹
89 | G13U A15C C58G | 0.00154 ± 0.00048 s⁻¹
